{"source": "a protein production outcome set (Wang et al. 2014)"}
{"assay": "label from the status in PepcDB records"}
{"sequence": "MKKGFVSIIIPSYNEASNIKLIYESLRNEFQSIDYDYEIYYINDGSTDRTLEEIKKLAEKSEHVKYISFSRNFGKEAAILAGFQHARGDAVVVMDADLQHPTYLLHDFIKGYEEGYDQVVAQRNRKGDNPVRSYLSSLYYRFINNAVEVDLRDGVGDFRLLSRKAVNAMLKLSEGNRFSKGLFCWIGFDQKIVYYENVERKNGKSKWSFRHLLNYGIDGIVSFNNRPLRMCFYAGIFILFLSLIYIAATFIRILKYGVIVPGYFTIISAVLFLGGVQLLSLGIIGEYIGRIYYETKKRPHYLIQEANIAHGETHENRES", "protein production": "failed"}
{"sequence": "MKKGRGYVYKLEYHLIWATKYRHQVLVDEVADGLKDILRDIATQNGLELVALEVMPDYVHLLLGATPQHVIPDFVKALKGASARRMFSAFPHLKQPHWGGNLWNPSYCVLTVSEHTRAQIQQYIENQHAAE", "protein production": "not failed"}
{"sequence": "MKKIAFGCDHVGFILKHEIVAHLVERGVEVIDKGTWSSERTDYPHYASQVALAVAGGEVDGGILICGTGVGISIAANKFAGIRAVVCSEPYSAQLSRQHNDTNVLAFGSRVVGLELAKMIVDAWLGAQYEGGRHQQRVEAITAIEQRRN", "protein production": "not failed"}
{"sequence": "MKKIAIFGSAFNPPSLGHKSVIESLSHFDLVLLEPSIAHAWGKNMLDYPIRCKLVDAFIKDMGLSNVQRSDLEQALYQPGQSVTTYALLEKIQEIYPTADITFVIGPDNFFKFAKFYKAEEITERWTVMACPEKVKIRSTDIRNALIEGKDISTYTTPTVSELLLNEGLYR", "protein production": "not failed"}
{"sequence": "MKKIAVFADVQNLYYTVRQAYGCHFNYAALWADISKRGEIVHAFAYAIDRGDSKQQQFQQILRNLGFTVRLKPYIQRSDGSAKGEWDVGITIDIMDFAPQVDEVVLASGDGDFDMLLDRVISKHGVEAVAYGVPGLTANSLIRAASRYVPIEGALLLK", "protein production": "not failed"}
{"sequence": "MKKIAVTYGEEKYSYADIIKYVNYYSEFLDISKGDRVALMMENRPESIFSFFSIWAKKGIALSLDAGYTVEQLAFVLNDSKPKYIFVSNKIKEVVEKANEQVGNIVKIMVVDEITLPTDYVIKQEEYENDSNEDLAVIVYTSGTTGNPKGVMITYELEHHHHHH", "protein production": "not failed"}
{"sequence": "MKKILCAVLLLFTGASWANSDDLETSGDVVHLLLPATALGATLFYEEGHEGSWQLLKAAVSSRVIVEGLKLGVNKDRPDGSGDDSFPSGHTSDSFMAATFIQQRYGWQYGLPAYLAASYVGYTRVESDKHYVEDVLAGAAIGMLAGWYFTEPYKGITVTPLAHNGVYGLYISGQF", "protein production": "failed"}
{"sequence": "MKKKLVIILSIICIIAGGYFTMEYLKHKEKEEFFWKTQETRVEKYIHYNVKDVKSITFIEHKISPMGIPSIEGYINDDKDLWFDASISTTENFEDKFSRSGELGKLIKDPEKSVSEIEKEEKEKKKELEHHHHHH", "protein production": "not failed"}
{"sequence": "MKKKMITALGVSAIILTNFVGSTYADSKIGVSVTAPYNKNQIAEWLEMHAKPLKTTNPNAPFNDLKPFKNMVGSASIVGLGEATHGAHEVFTMKNRIVNYLVSEKGFTNLVLEEGWDRALELDRYVLTGEGNPSQHLSPVFKTKEMLDLLNWIRQYNANPKHKSKVRIIGMDIQSVNENVYNNIIEYVKRTNSKLVPRIEEKIKGLIPVTKDMNTFESLTKEEKEKYISDAKQISAVLEENKSYLNGKSKEFAWIKQNARIIEQFTTMLTSPPDKPSDLFLKHDIAMYENAKWTEEHLGKTIVWGHNGHVSKTNMLPFVYPKVAGQYLAEYYGKRYVSIGTSVYEGQYNVKNSDGEFGPYGILKSDDPNSYNYIFGQVKKDQFFIDLRKANGVTKNWLNEQHPIFAGVTTEGPGIPKTVDISLGKAFDILVQIQKVSPSQLHQLEHHHHHH", "protein production": "failed"}
{"sequence": "MKKLAIAISTILLSGAAYAGNTADVELFNADDNDVNIFQMSPAVGNDADVLIRNSDENEVDIYQMGRHNDAVVRVRNGSDDNDLMIDQDGRHNRAVLKARLGSDENDFAIEQDGRLNLGKVIADDSDNNNGLIDQRGRRNEAYINFDSASDNSNNKIVQRGRRNEGEISVMGGSNNGTLKIRQKGHDNDSKIHVYGGSGNEALTKINGDDNTTYTAFYAGASDNDTTILMKNDSLDNTVYAVVVGGSFNEADVTIDSSNDNFVSVAQWGDSSMAEVTLENGSNDNWIMINQTNNDMATVTADNSSYNAVVITQL", "protein production": "failed"}
{"sequence": "MKKLIVDLDGTLTQANTSDYRNVLPRLDVIEQLREYHQLGFEIVISTARNMRTYEGNVGKINIHTLPIITEWLDKHQVPYDEILVGKPWCGHDGFYIDDRAVRPSEFASMNLEEIHQLFEKEKSCS", "protein production": "not failed"}
